B1: S. cerevisiae Abp1 (full length; SH3 domain 535-592 mutated) / Hua2 (parent complex)
chain 1: MALEPIDYTTHSREIDAEYLKIVRGSDPDTTWLIISPNAKKEYEPESTGSSFHDFLQLFDETKVQYGLARVSPPGSDVEKIIIIGWCPDSAPLKTRASFAANFAAVANNLFKGYHVQVTARDEDDLDENELLMKISNAAGARYSIQTSSKQQGKASTPPVKKSFTPSKSPAPVSKKEPVKTPSPAPAAKISSRVNDNNDDDDWNEPELKERDFDQAPLKPNQSSYKPIGKIDLQKVIAEEKAKEDPRLVQKPTAAGSKIDPSSDIANLKNESKLKRDSEFNSFLGTTKPPSMTESSLKNDDDKVIKGFRNEKSPAQLWAERKAKQNSGNAETKAEAPKPEVPEDEPEGEPDVKDLKSKFEGLAASEKEEEEMENKFAPPPKKSEPTIISPKPFSKPQEPVKAEEAEQPKTDYKKIGNPLPGMHIEADNEEEPEENDDDWDDDEDEAAQPPLPSRNVASGAPVQKEEPEQEEIAPSLPSRNSIPAPKQEEAPEQAPEEEIEEEAEEAAPQLPSRSSAAPPPPPRRATPEKKPKENPWATAEYDYDAAEDNELTFVENDKIINIEFVDDDWWLGELEKDGSKGLFPSNYVSLGN
chain 2: MQQTKFGKMYLDHDSVVEYSEDEIVEADRITLGYKKRLSMIENQMRHLLEDFSLDVQQIEPILADLQKYYDAFLQLLQKRNKSLQCKRSTHQPVPSPMNSQTSTNAKVNLSGKLMKFQLNSVQKFDEENILRILQNKIEFEHYFQIDKGKKQKVLLLAVYQCLNGPTRLHKVLNIEGIIHNNSIRTILGKQVSSSKWTVFLYDVKLVLLAHRQDVPNLETSKMIVRYGDLFPCALYFKDHTAY

This experiment covers variants of B1. The experiment in a line: DHFR protein-fragment complementation in yeast (Abp1-DHFR F[1,2] x partner-DHFR F[3]), deep mutational scanning, second methotrexate selection vs reference; S. cerevisiae, DHFR-PCA selection in liquid with methotrexate at 30 C, two 72 h selections (the score uses the second); reference = the pre-selection culture.
Consider chain 1 MALEPIDYTTHSREIDAEYLKIVRGSDPDTTWLIISPNAKKEYEPESTGSSFHDFLQLFDETKVQYGLARVSPPGSDVEKIIIIGWCPDSAPLKTRASFAANFAAVANNLFKGYHVQVTARDEDDLDENELLMKISNAAGARYSIQTSSKQQGKASTPPVKKSFTPSKSPAPVSKKEPVKTPSPAPAAKISSRVNDNNDDDDWNEPELKERDFDQAPLKPNQSSYKPIGKIDLQKVIAEEKAKEDPRLVQKPTAAGSKIDPSSDIANLKNESKLKRDSEFNSFLGTTKPPSMTESSLKNDDDKVIKGFRNEKSPAQLWAERKAKQNSGNAETKAEAPKPEVPEDEPEGEPDVKDLKSKFEGLAASEKEEEEMENKFAPPPKKSEPTIISPKPFSKPQEPVKAEEAEQPKTDYKKIGNPLPGMHIEADNEEEPEENDDDWDDDEDEAAQPPLPSRNVASGAPVQKEEPEQEEIAPSLPSRNSIPAPKQEEAPEQAPEEEIEEEAEEAAPQLPSRSSAAPPPPPRRATPEKKPKENPWATAEYDYDAAEDNELTFVENDKIINIEFVDDDWWLGELWKDGSKGLFPSNYVSLGN [chain 1 E575W], for which the screen value is -0.949 DMS score: mean over two replicates of log2(f_test/f_ref + 0.5)/ln 2, minus the synonymous-codon median (not a log2 …. As to chain 1 MALEPIDYTTHSREIDAEYLKIVRGSDPDTTWLIISPNAKKEYEPESTGSSFHDFLQLFDETKVQYGLARVSPPGSDVEKIIIIGWCPDSAPLKTRASFAANFAAVANNLFKGYHVQVTARDEDDLDENELLMKISNAAGARYSIQTSSKQQGKASTPPVKKSFTPSKSPAPVSKKEPVKTPSPAPAAKISSRVNDNNDDDDWNEPELKERDFDQAPLKPNQSSYKPIGKIDLQKVIAEEKAKEDPRLVQKPTAAGSKIDPSSDIANLKNESKLKRDSEFNSFLGTTKPPSMTESSLKNDDDKVIKGFRNEKSPAQLWAERKAKQNSGNAETKAEAPKPEVPEDEPEGEPDVKDLKSKFEGLAASEKEEEEMENKFAPPPKKSEPTIISPKPFSKPQEPVKAEEAEQPKTDYKKIGNPLPGMHIEADNEEEPEENDDDWDDDEDEAAQPPLPSRNVASGAPVQKEEPEQEEIAPSLPSRNSIPAPKQEEAPEQAPEEEIEEEAEEAAPQLPSRSSAAPPPPPRRATPEKKPKENPWATAEYDYDAAEDNELTFVENDKIINIEFVDDDWWLGELQKDGSKGLFPSNYVSLGN [chain 1 E575Q], the screen value is 0.336 DMS score: mean over two replicates of log2(f_test/f_ref + 0.5)/ln 2, minus the synonymous-codon median (not a log2 ….

For the variant chain 1 MALEPIDYTTHSREIDAEYLKIVRGSDPDTTWLIISPNAKKEYEPESTGSSFHDFLQLFDETKVQYGLARVSPPGSDVEKIIIIGWCPDSAPLKTRASFAANFAAVANNLFKGYHVQVTARDEDDLDENELLMKISNAAGARYSIQTSSKQQGKASTPPVKKSFTPSKSPAPVSKKEPVKTPSPAPAAKISSRVNDNNDDDDWNEPELKERDFDQAPLKPNQSSYKPIGKIDLQKVIAEEKAKEDPRLVQKPTAAGSKIDPSSDIANLKNESKLKRDSEFNSFLGTTKPPSMTESSLKNDDDKVIKGFRNEKSPAQLWAERKAKQNSGNAETKAEAPKPEVPEDEPEGEPDVKDLKSKFEGLAASEKEEEEMENKFAPPPKKSEPTIISPKPFSKPQEPVKAEEAEQPKTDYKKIGNPLPGMHIEADNEEEPEENDDDWDDDEDEAAQPPLPSRNVASGAPVQKEEPEQEEIAPSLPSRNSIPAPKQEEAPEQAPEEEIEEEAEEAAPQLPSRSSAAPPPPPRRATPEKKPKENPWATAEYDYDAAEDNELTFVENDKIINIEFVDDDWWLGELEKDGSKGWFPSNYVSLGN [chain 1 L582W], the screen value was 0.141 DMS score: mean over two replicates of log2(f_test/f_ref + 0.5)/ln 2, minus the synonymous-codon median (not a log2 …. As to chain 1 MALEPIDYTTHSREIDAEYLKIVRGSDPDTTWLIISPNAKKEYEPESTGSSFHDFLQLFDETKVQYGLARVSPPGSDVEKIIIIGWCPDSAPLKTRASFAANFAAVANNLFKGYHVQVTARDEDDLDENELLMKISNAAGARYSIQTSSKQQGKASTPPVKKSFTPSKSPAPVSKKEPVKTPSPAPAAKISSRVNDNNDDDDWNEPELKERDFDQAPLKPNQSSYKPIGKIDLQKVIAEEKAKEDPRLVQKPTAAGSKIDPSSDIANLKNESKLKRDSEFNSFLGTTKPPSMTESSLKNDDDKVIKGFRNEKSPAQLWAERKAKQNSGNAETKAEAPKPEVPEDEPEGEPDVKDLKSKFEGLAASEKEEEEMENKFAPPPKKSEPTIISPKPFSKPQEPVKAEEAEQPKTDYKKIGNPLPGMHIEADNEEEPEENDDDWDDDEDEAAQPPLPSRNVASGAPVQKEEPEQEEIAPSLPSRNSIPAPKQEEAPEQAPEEEIEEEAEEAAPQLPSRSSAAPPPPPRRATPEKKPKENPWATAEYDYDAAEDNELTFVENDKIINIEFVQDDWWLGELEKDGSKGLFPSNYVSLGN [chain 1 D566Q], the screen value was -2.94 DMS score: mean over two replicates of log2(f_test/f_ref + 0.5)/ln 2, minus the synonymous-codon median (not a log2 ….

With chain 1 MALEPIDYTTHSREIDAEYLKIVRGSDPDTTWLIISPNAKKEYEPESTGSSFHDFLQLFDETKVQYGLARVSPPGSDVEKIIIIGWCPDSAPLKTRASFAANFAAVANNLFKGYHVQVTARDEDDLDENELLMKISNAAGARYSIQTSSKQQGKASTPPVKKSFTPSKSPAPVSKKEPVKTPSPAPAAKISSRVNDNNDDDDWNEPELKERDFDQAPLKPNQSSYKPIGKIDLQKVIAEEKAKEDPRLVQKPTAAGSKIDPSSDIANLKNESKLKRDSEFNSFLGTTKPPSMTESSLKNDDDKVIKGFRNEKSPAQLWAERKAKQNSGNAETKAEAPKPEVPEDEPEGEPDVKDLKSKFEGLAASEKEEEEMENKFAPPPKKSEPTIISPKPFSKPQEPVKAEEAEQPKTDYKKIGNPLPGMHIEADNEEEPEENDDDWDDDEDEAAQPPLPSRNVASGAPVQKEEPEQEEIAPSLPSRNSIPAPKQEEAPEQAPEEEIEEEAEEAAPQLPSRSSAAPPPPPRRATPEKKPKENPWATAEYDYDAAEDNELTFVENDKIINIEFVDDDFWLGELEKDGSKGLFPSNYVSLGN [chain 1 W569F], the screen value was 0.62 DMS score: mean over two replicates of log2(f_test/f_ref + 0.5)/ln 2, minus the synonymous-codon median (not a log2 ….

These data come from publication PMC7954794 (2021).
